Key:
A244gD+ gp120 [1] = biological target: T1, A244gD+ gp120 (herpes simplex virus; HIV-1); test: SPR
HV00044 (6240 TZ5 140C) = biological target: T2, HV00044 (6240 TZ5 140C) (HIV-1); test: SPR
T2 construct: domain: gp140; also called 624008 TA5 gp140; 6240 transmitted founder Env

A244gD- gp120 = biological target: T3, A244gD- gp120 (HIV-1); test: SPR
T3 construct: domain: gp120

MN gp120 = biological target: T4, MN gp120 (HIV-1, UniProt P05877 32-513); test: ELISA
T4 construct: domain: gp120

A244gD+ gp120 [2] = biological target: T1, A244gD+ gp120; test: ELISA on monomeric Env
CM 243 gp120 = biological target: T5, CM 243 gp120 (HIV-1); test: ELISA on monomeric Env
T5 construct: domain: gp120; also called gp120 CM243

HV00046 (902114 B2 140C) = biological target: T6, HV00046 (902114 B2 140C) (HIV-1); test: ELISA on monomeric Env
T6 construct: domain: gp140

[3] = biological target: Env (gp120) of HIV-1 isolate Q23.17 (HIV-1); test: cell-based or functional assay
[4] = biological target: Env (gp120) of HIV-1 Q23.17.N160K (HIV-1); test: cell-based or functional assay
[5] = biological target: Env (gp120) of HIV-1 isolate JRCSF (HIV-1, UniProt P20871 32-848); test: cell-based or functional assay
[6] = biological target: Env (gp120) of HIV-1 isolate JRFL (virus) (HIV-1); test: cell-based or functional assay
[7] = biological target: Env (gp120) of HIV-1 JRFL.E168K (HIV-1); test: cell-based or functional assay
[8] = biological target: Env (gp120) of HIV-1 JRFL.N160K.E168K (HIV-1); test: cell-based or functional assay
[9] = biological target: Env (gp120) of HIV-1 isolate 7165.18 (HIV-1); test: cell-based or functional assay
[10] = biological target: Env (gp120) of HIV-1 7165.18.N160K (HIV-1); test: cell-based or functional assay
SSA [11] = test: Athena autoantigen assay, mAb 25 ug/ml
SSB [12] = test: Athena autoantigen assay, mAb 25 ug/ml
Chain of SSB (P05455 whole entry): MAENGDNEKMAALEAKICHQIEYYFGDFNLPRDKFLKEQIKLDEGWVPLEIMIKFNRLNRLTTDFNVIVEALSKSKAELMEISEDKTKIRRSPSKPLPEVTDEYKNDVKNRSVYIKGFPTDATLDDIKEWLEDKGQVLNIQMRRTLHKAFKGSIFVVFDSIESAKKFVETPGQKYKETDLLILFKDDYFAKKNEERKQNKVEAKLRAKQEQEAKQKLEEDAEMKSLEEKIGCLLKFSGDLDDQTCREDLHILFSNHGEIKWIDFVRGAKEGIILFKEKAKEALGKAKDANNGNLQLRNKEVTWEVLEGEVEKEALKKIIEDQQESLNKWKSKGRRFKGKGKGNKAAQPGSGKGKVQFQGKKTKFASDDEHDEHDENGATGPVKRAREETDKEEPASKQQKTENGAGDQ

Sm [13] = test: Athena autoantigen assay, mAb 25 ug/ml
RNP [14] = test: Athena autoantigen assay, mAb 25 ug/ml
Scl 70 [15] = test: Athena autoantigen assay, mAb 25 ug/ml
Jo 1 [16] = test: Athena autoantigen assay, mAb 25 ug/ml
Chain of Jo 1 (P12081 2-509): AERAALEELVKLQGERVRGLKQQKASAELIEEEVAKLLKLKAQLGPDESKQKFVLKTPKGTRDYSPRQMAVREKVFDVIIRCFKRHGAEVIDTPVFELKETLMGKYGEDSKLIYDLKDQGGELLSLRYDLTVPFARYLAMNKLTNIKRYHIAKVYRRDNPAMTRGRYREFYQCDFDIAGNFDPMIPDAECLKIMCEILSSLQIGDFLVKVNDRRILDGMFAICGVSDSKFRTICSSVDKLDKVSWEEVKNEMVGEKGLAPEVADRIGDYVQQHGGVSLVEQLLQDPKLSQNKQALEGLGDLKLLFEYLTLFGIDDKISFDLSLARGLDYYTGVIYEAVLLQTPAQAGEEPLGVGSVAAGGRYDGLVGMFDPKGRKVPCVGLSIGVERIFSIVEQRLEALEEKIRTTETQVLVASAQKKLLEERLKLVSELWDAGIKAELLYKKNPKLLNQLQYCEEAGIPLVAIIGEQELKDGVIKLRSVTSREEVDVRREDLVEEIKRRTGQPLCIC

Cent B [17] = biological target: T7, Cent B; test: Athena autoantigen assay, mAb 25 ug/ml
T7 construct: also called centromere B
T7 sequence (P07199 2-599): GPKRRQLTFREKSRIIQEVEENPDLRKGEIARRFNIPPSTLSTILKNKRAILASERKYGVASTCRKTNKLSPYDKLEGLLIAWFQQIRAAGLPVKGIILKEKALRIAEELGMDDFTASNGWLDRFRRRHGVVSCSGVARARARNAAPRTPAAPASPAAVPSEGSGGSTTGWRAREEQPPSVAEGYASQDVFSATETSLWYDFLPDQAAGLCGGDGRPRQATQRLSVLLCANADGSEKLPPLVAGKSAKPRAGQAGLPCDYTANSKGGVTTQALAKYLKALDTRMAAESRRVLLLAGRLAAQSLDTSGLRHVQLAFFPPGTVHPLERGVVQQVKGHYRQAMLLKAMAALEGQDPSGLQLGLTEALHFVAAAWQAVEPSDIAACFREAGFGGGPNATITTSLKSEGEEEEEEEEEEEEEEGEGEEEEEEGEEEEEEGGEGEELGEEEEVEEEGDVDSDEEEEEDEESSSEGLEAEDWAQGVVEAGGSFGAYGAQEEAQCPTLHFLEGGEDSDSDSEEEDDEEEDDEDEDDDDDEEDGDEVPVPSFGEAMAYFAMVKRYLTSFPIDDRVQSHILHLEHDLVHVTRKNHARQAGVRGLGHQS

Histone [18] = test: Athena autoantigen assay, mAb 25 ug/ml
SSA [19] = test: Athena autoantigen assay, mAb 12.5 ug/ml
SSB [20] = test: Athena autoantigen assay, mAb 12.5 ug/ml
Sm [21] = test: Athena autoantigen assay, mAb 12.5 ug/ml
RNP [22] = test: Athena autoantigen assay, mAb 12.5 ug/ml
Scl 70 [23] = test: Athena autoantigen assay, mAb 12.5 ug/ml
Jo 1 [24] = test: Athena autoantigen assay, mAb 12.5 ug/ml
Cent B [25] = biological target: T7, Cent B; test: Athena autoantigen assay, mAb 12.5 ug/ml
Histone [26] = test: Athena autoantigen assay, mAb 12.5 ug/ml
SSA [27] = test: Athena autoantigen assay, mAb 6.25 ug/ml
SSB [28] = test: Athena autoantigen assay, mAb 6.25 ug/ml
Sm [29] = test: Athena autoantigen assay, mAb 6.25 ug/ml
RNP [30] = test: Athena autoantigen assay, mAb 6.25 ug/ml
Scl 70 [31] = test: Athena autoantigen assay, mAb 6.25 ug/ml
Jo 1 [32] = test: Athena autoantigen assay, mAb 6.25 ug/ml
Cent B [33] = biological target: T7, Cent B; test: Athena autoantigen assay, mAb 6.25 ug/ml
Histone [34] = test: Athena autoantigen assay, mAb 6.25 ug/ml

B1: CH01 (antibody, V domains shown)
VH: EVQLVESGANVVRPGGSLRLSCKASGFIFENFGFSWVRQAPGKGLQWVAGLNWNGGDTRYADSVKGRFRMSRDNSRNFVYLDMDKVGVDDTAFYYCARGTDYTIDDAGIHYQGSGTFWYFDLWGRGTLVSVSS
VL: EIVLTQSPGTLSLSPGERATLSCRASHNVHPKYFAWYQQKPGQSPRLLIYGGSTRAAGIPGKFSGSGSGTDFTLTISRVDPEDFAVYYCQQYGGSPYTFGQGTKVEI
notes: also called 1-27-G2; 27G2
Kd (A244gD+ gp120 [1]): 8.8 nM
Kd (HV00044 (6240 TZ5 140C)): 300 nM
Kd (A244gD- gp120): 340 nM
binding result (MN gp120): no binding
EC50 (A244gD+ gp120 [2]): 7.8 µM
EC50 (CM 243 gp120): 12.7 µM
EC50 (HV00046 (902114 B2 140C)): 63.2 µM
IC50 (virus neutralization) [3]: 0.014 µg/mL
IC80 (virus neutralization) [3]: 0.035 µg/mL
IC50 (virus neutralization) [4]: > 50 µg/mL
IC80 (virus neutralization) [4]: > 50 µg/mL
IC50 (virus neutralization) [5]: 0.07 µg/mL
IC80 (virus neutralization) [5]: > 50 µg/mL
IC50 (virus neutralization) [6]: > 50 µg/mL
IC80 (virus neutralization) [6]: > 50 µg/mL
IC50 (virus neutralization) [7]: 0.044 µg/mL
IC80 (virus neutralization) [7]: 0.382 µg/mL
IC50 (virus neutralization) [8]: > 50 µg/mL
IC80 (virus neutralization) [8]: > 50 µg/mL
IC50 (virus neutralization) [9]: 5.82 µg/mL
IC80 (virus neutralization) [9]: > 50 µg/mL
IC50 (virus neutralization) [10]: > 50 µg/mL
IC80 (virus neutralization) [10]: > 50 µg/mL
Athena autoreactivity score (SSA [11]): 6.5
Athena autoreactivity score (SSB [12]): 5.5
Athena autoreactivity score (Sm [13]): 4
Athena autoreactivity score (RNP [14]): 5.5
Athena autoreactivity score (Scl 70 [15]): 3
Athena autoreactivity score (Jo 1 [16]): 2.5
Athena autoreactivity score (Cent B [17]): 14
Athena autoreactivity score (Histone [18]): 17.5
Athena autoreactivity score (SSA [19]): 5
Athena autoreactivity score (SSB [20]): 5
Athena autoreactivity score (Sm [21]): 3
Athena autoreactivity score (RNP [22]): 4.5
Athena autoreactivity score (Scl 70 [23]): 2
Athena autoreactivity score (Jo 1 [24]): 2
Athena autoreactivity score (Cent B [25]): 10
Athena autoreactivity score (Histone [26]): 13.5
Athena autoreactivity score (SSA [27]): 5.5
Athena autoreactivity score (SSB [28]): 5.5
Athena autoreactivity score (Sm [29]): 2.5
Athena autoreactivity score (RNP [30]): 4
Athena autoreactivity score (Scl 70 [31]): 1.5
Athena autoreactivity score (Jo 1 [32]): 2
Athena autoreactivity score (Cent B [33]): 7
Athena autoreactivity score (Histone [34]): 10

From US20160271244A1 (DUKE UNIVERSITY, published 2016)
